Test results published in patent US8829044B2, “Stabilized vitamin C derivatives having a peptide molecule, preparation method thereof, and composition containing the same” (Peotron Co. Ltd., priority 2006, dated 2014).
Values belong to the molecule of their own block, whether it stands above or below them. Peptide text beside a SMILES is read from it. * marks the point of attachment. X1 = O=C(CCC(=O)*)O[C@@H](CO)[C@H]1OC(=O)C(OP(=O)(O)O)=C1O; X2 = O=C(CCC(=O)*)O[C@@H](CO)[C@H]1OC(=O)C(O)=C1O

Assay: physchem
Protocol: Stability of each substance was evaluated, while being maintained at 25° C. and 50° C. for 30 days, by observing the change of UV (254 nm) absorbance.

[1] = buffer, Remaining test substance (%)

Remaining test substance (%) (buffer, 0 day, 10 μg/mL): 100%
Remaining test substance (%) (buffer, 2 day, 10 μg/mL): 0%
Remaining test substance (%) (buffer, 3 day, 10 μg/mL): 0%
Remaining test substance (%) (buffer, 5 day, 10 μg/mL): 0%
Remaining test substance (%) (buffer, 10 day, 10 μg/mL): 0%
Remaining test substance (%) (buffer, 20 day, 10 μg/mL): 0%
Remaining test substance (%) (buffer, 30 day, 10 μg/mL): 0%
SMILES: O=C1O[C@H]([C@@H](O)CO)C(O)=C1O [Vitamin C, ascorbic acid]

SMILES: C[C@@H](O)[C@H](NC(=O)[C@H](CCCCN)NC(=O)CCC(=O)O[C@@H](CO)[C@H]1OC(=O)C(OP(=O)(O)O)=C1O)C(=O)N[C@H](C(=O)N[C@@H](CCCCN)C(=O)N[C@@H](CO)C(=O)O)[C@@H](C)O [Ic-1, 2-phospho-5-(succinyl-lysine-threonine-threonine-lysine-serine) ascorbic acid] (X1-KTTKS-OH)
remaining at 24 h, 10 μg/mL [1]: 100%
remaining at 48 h, 10 μg/mL [1]: 100%
remaining at 72 h, 10 μg/mL [1]: 100%
remaining at 120 h, 10 μg/mL [1]: 100%
remaining at 240 h, 10 μg/mL [1]: 100%

SMILES: C[C@@H](O)[C@H](NC(=O)[C@H](CCCCN)NC(=O)CCC(=O)O[C@@H](CO)[C@H]1OC(=O)C(O)=C1O)C(=O)N[C@H](C(=O)N[C@@H](CCCCN)C(=O)N[C@@H](CO)C(=O)O)[C@@H](C)O [succinoyl ascorbyl pentapeptide] (X2-KTTKS-OH)
remaining at 24 h, 10 μg/mL (buffer, Remaining test substance (%), day 1, 25° C., 10 μg/mL in purified water): 60%
remaining at 24 h, 10 μg/mL (buffer, Remaining test substance (%), day 1, 50° C., 10 μg/mL in purified water): 50%
remaining at 48 h, 10 μg/mL (buffer, Remaining test substance (%), day 2, 25° C., 10 μg/mL in purified water): 20%
remaining at 48 h, 10 μg/mL (buffer, Remaining test substance (%), day 2, 50° C., 10 μg/mL in purified water): 10%
remaining at 72 h, 10 μg/mL (buffer, Remaining test substance (%), day 3, 25° C., 10 μg/mL in purified water): 10%
remaining at 72 h, 10 μg/mL (buffer, Remaining test substance (%), day 3, 50° C., 10 μg/mL in purified water): 0%
remaining at 120 h, 10 μg/mL (buffer, Remaining test substance (%), day 5, 50° C., 10 μg/mL in purified water): 0%
remaining at 240 h, 10 μg/mL (buffer, Remaining test substance (%), day 10, 50° C., 10 μg/mL in purified water): 0%
remaining at 480 h, 10 μg/mL (buffer, Remaining test substance (%), day 20, 50° C., 10 μg/mL in purified water): 0%
remaining at 720 h, 10 μg/mL (buffer, Remaining test substance (%), day 30, 50° C., 10 μg/mL in purified water): 0%
Remaining test substance (%) (day 0, 25° C., 10 μg/mL in purified water): 100%
Remaining test substance (%) (day 0, 50° C., 10 μg/mL in purified water): 100%
Remaining test substance (%) (day 5, 25° C., 10 μg/mL in purified water): 0%
Remaining test substance (%) (day 10, 25° C., 10 μg/mL in purified water): 0%
Remaining test substance (%) (day 20, 25° C., 10 μg/mL in purified water): 0%
Remaining test substance (%) (day 30, 25° C., 10 μg/mL in purified water): 0%
